From patent publication US20240182575A1

Experiments:
[1] = target: HuCTLA4-HuIgG1 (fusion protein of the extracellular part of human CD152 and human Fc gamma 1, CTLA4-Ig) (human) (UniProt P16410); test: alphascreen, CTLA4-Fc; blocked ligand biotinylated CD80-Fc
[2] = target: human CTLA4 (Y201 mutated to valine) on stably transfected CHO-K1 cells (human) (UniProt P16410); test: FACS competition, human CTLA4 CHO cells; blocked ligand HuB7.1/Fc
[3] = target: rhB7-H2-Fc (fusion protein of the extracellular part of human B7-H2 (ICOSL) and mouse Fc gamma 1, R&D Systems Cat #165-B7) (human; mouse) (UniProt O75144); test: competition ELISA, coated B7-H2; competes with ICOS-biotin
Chain of rhB7-H2-Fc (fusion protein of the extracellular part of human B7-H2 (ICOSL) and mouse Fc gamma 1, R&D Systems Cat #165-B7) (human; mouse) (O75144 other isoform, or with tags, fused parts or gaps limits assumed): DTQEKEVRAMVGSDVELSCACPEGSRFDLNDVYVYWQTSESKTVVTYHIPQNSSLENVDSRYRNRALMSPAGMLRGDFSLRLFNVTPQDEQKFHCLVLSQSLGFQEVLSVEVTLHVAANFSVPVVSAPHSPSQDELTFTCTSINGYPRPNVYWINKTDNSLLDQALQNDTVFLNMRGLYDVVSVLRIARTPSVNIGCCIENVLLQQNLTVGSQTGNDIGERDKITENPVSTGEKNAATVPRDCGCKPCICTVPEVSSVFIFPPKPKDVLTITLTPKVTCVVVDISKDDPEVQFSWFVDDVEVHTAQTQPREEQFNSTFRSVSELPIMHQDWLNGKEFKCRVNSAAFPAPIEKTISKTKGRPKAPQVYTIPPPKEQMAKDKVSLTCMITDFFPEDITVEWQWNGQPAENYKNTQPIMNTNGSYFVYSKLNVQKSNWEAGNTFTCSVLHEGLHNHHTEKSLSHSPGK

Chain of HuCTLA4-HuIgG1 (fusion protein of the extracellular part of human CD152 and human Fc gamma 1, CTLA4-Ig) (human) (P16410 36-161 limits assumed): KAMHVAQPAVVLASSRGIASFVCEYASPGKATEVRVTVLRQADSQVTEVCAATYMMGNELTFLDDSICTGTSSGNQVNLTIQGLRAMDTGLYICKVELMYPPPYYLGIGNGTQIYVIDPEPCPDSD
Chain of cold ICOS (receptor) (Q9Y6W8 21-140): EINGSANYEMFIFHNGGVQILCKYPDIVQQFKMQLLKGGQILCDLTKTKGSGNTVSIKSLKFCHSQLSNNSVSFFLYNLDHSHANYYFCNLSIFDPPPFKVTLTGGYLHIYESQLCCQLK
Chain of human CTLA4 (Y201 mutated to valine) on stably transfected CHO-K1 cells (human) (P16410 other isoform, or with tags, fused parts or gaps, change not shown): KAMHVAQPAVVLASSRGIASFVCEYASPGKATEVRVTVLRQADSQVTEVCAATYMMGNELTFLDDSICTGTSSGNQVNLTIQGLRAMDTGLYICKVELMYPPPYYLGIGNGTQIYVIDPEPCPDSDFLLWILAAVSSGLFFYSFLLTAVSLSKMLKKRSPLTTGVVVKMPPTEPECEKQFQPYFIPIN

Substance | IC50 (read off the curve) [1] | IC50 (read off the curve) [2] | IC50 (read off the curve) [3]
BNI3 fab | 2 nM |  | 
Mouse-anti-human CTLA4 clone BNI3 (antibody) | 0.3 nM | 10 nM | 
cold ICOS (receptor) |  |  | 20 nM
